The target in test [1] is PaxA_(981-1084), T1-CDD di-domain construct (apo), X. cabanillasii JM26 (Xenorhabdus cabanillasii JM26) (UniProt W1J0W9). Put plainly: ITC; PaxA construct titrated with the PaxB NDD peptide or its variant; n=3 for the variants.
Test [2] deals with PaxA_(986-1089), T1-CDD di-domain construct (apo), X. bovienii SS-2004 (Xenorhabdus bovienii SS-2004). Described as above.
The target in test [3] is T1, PaxB_(1-30) (PaxB NDD), X. cabanillasii JM26 (Xenorhabdus cabanillasii JM26).
T1 chain: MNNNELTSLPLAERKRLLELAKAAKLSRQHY
Description: ITC; replicate 1. (Isothermal titration calorimetry measures the heat released or taken up as one component is titrated into another.)

In test [4] the target is T1, PaxB_(1-30) (PaxB NDD), X. cabanillasii …. Put plainly: ITC; replicate 3.
For test [5] the target is unchanged. Put plainly: ITC; apo, replicate 1.
For test [6] the target is unchanged. Description: ITC; apo, replicate 3.
Another test concerns PaxB NDD. Description: ITC titration of X. cabanillasii PaxA constructs with PaxB NDD. Type of test: binding, Xenorhabdus cabanillasii JM26. The following applies: X. cabanillasii JM26, 20 °C, pH 6.5, one site model. From the text: Unfortunately, despite its very high affinity the complex between the PaxA T1‐^CDD di‐domain construct and the PaxB ^NDD peptide from the PaxS NRPS from X. bovienii SS‐2004 was not suitable for a full structure determination. The closely related species Xenorhabdus cabanillasii JM26 also contains the PaxS NRPS with PaxA and PaxB (Figure S4). […] The affinity of this interaction was not modulated by the presence of the Ppant moiety in the PaxA T1 domain (Figure S7). […] Thus, the interaction between PaxA and PaxB from the PaxS NRPS of X. cabanillasii has biophysical properties very similar to the one from the X. bovienii system and was amenable to a full structural characterization by NMR spectroscopy.
England BioLabs) approach following the manufacturer`s instructions.
Protein expression and purification […]
interactions, proteins from Xenorhabdus cabanillasii and Xenorhabdus bovienii were […]
BAP1 under the control of a T7 promoter. All proteins of interest were expressed as SUMO […]
concentration measurements upon cleavage with Ulp protease. All constructs containing the […]
measurements, proteins were expressed in LB medium. Protein expression was induced at an […]
After expression, cells were lysed by […]
spectrometers equipped with cryogenic 5 mm triple resonance probes. The proton chemical […]
mercaptoethanol and 5 % D2O. Sequential assignments of backbone amide signals and […]

Test [7] has as its target T1, PaxB_(1-30) (PaxB NDD), X. cabanillasii …. Description: ITC; holo (Ppant), replicate 1.
For test [8] the target is unchanged. Put plainly: ITC; holo (Ppant), replicate 2.
Test [9] shares this target. Description: ITC; holo (Ppant), replicate 3.
Test [10] shares this target. Put plainly: ITC; holo (Ppant), mean of three replicates.

Regarding “PaxB NDD K22E mutant, X. cabanillasii JM26 (domain or fragment)”, in [1], the Kd worked out at 3.8 µM.
The molecule “PaxB NDD R16E mutant, X. cabanillasii JM26 (domain or fragment)” had a Kd in [1] of 2.8 µM.
In [1], “PaxB_(1-30) (PaxB NDD), X. cabanillasii JM26 (domain or fragment)” gave a Kd of 0.248 µM and a stoichiometry N of 0.88.
For “PaxB_(1-36) (PaxB NDD), X. bovienii SS-2004 (domain or fragment)”, in test [2], the dissociation constant Kd came to 201 nM and the stoichiometry N is 0.74.
Molecule “PaxB NDD P10L variant, X. cabanillasii JM26 (domain or fragment)” returned a Kd in [1] of 3.9 µM.

B1: PaxA_(981-1084), T1-CDD di-domain construct (apo), X. cabanillasii JM26 (domain or fragment)
chain: DHSSVITQEYAAPQGEIEEQLADIWQTILKIDRIGRYDNFFELGGHSLLVLQLQSRINEIFDVDISIQQLFAHPSICQLEECIINAQLLQFDADSLQDIYKSME
As for B1, the Kd in [3] stood at 267 nM; in test [4], 224 nM; in test [5], 267 nM; in [6], 224 nM.

B2: PaxA981–1084: X. cabanillasii PaxA T1-CDD di-domain (protein)
chain: DHSSVITQEYAAPQGEIEEQLADIWQTILKIDRIGRYDNFFELGGHSLLVLQLQSRINEIFDVDISIQQLFAHPSICQLEECIINAQLLQFDADSLQDIYKSME
As for B2, the “n (binding stoichiometry)” value in the test with PaxB NDD turned out to be 0.88±0.01 sites.

B3: PaxA T1-CDD di-domain with the Ppant moiety (holo), X. cabanillasii JM26 (domain or fragment)
chain: DHSSVITQEYAAPQGEIEEQLADIWQTILKIDRIGRYDNFFELGGHSLLVLQLQSRINEIFDVDISIQQLFAHPSICQLEECIINAQLLQFDADSLQDIYKSME
modifications: phosphopantetheinyl (Ppant) arm attached to residue S1027
For B3, the Kd in test [7] worked out at 248 nM; in test [8], 220 nM; in [9] it was 192 nM; in [10], 220 nM.

The Kd is the constant that tells how readily two partners part at equilibrium. High values mean lower affinity, low ones higher affinity. One may read the stoichiometry N as a count of units in the complex or per binding partner.
